From patent US20110286916A1 (published 2011) come the findings set out here.

The chains are these.
B1: N1wc15 (scFv, V domains shown)
VH: QVQLQQSGAEVKKPGASVKVSCKASGYNFTGYYMHWVRQAPGQGLEWMGWINPNSGGTNYAQKFQGRVTMTRDTSISTAYMELSRLRSDDTAVYYCATDSFDYWGQGTMVTVSS
VL: not shown
notes: phage scFv
B2: hN1S3-053 (scFv, V domains shown)
VH: B1 VH with Q1E, Q5V, Q106R, M109T
VL: QAVLTQPSSVSGAPGQRVTISCTGSRSNIGAGYDVHWYQQLPGTAPKLLIYGNSNRPSGVPDRFSGSKSGTSASLAITGLQAEDEADYYCQSYDSSLSGSVFGGGTKLTVL
notes: phage scFv
B3: N1wc624 (scFv, V domains shown)
VH: B1 VH with R87G, Q106R, M109L
VL: not shown
notes: phage scFv
B4: hN1S3-181 (scFv, V domains shown)
VH: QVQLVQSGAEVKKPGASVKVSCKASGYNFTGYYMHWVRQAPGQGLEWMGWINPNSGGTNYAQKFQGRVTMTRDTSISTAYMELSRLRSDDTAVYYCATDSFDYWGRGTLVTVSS
VL: SYVLTQPPSASGTPGQRVTISCSGSSPNIGSNTVNWYQQLPGTAPKLLIYTNNQRPSGVPDRFSGSKSATSASLAISGLQFDDEADYFCAAWDDSLLGVVFGGGTKVTVL
notes: phage scFv
B5: hN1S3-036 (scFv, V domains shown)
VH: B1 VH with Q1E, Q5V, Q106R
VL: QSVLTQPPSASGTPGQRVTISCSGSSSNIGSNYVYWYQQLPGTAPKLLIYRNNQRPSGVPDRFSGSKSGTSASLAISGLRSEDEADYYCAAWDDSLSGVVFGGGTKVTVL
notes: phage scFv
B6: N1wc248 (scFv, V domains shown)
VH: B1 VH with Q1E, Q5V, T91S, Q106R, M109L
VL: QSVLTQPPSASGTPGQRVTISCSGSSSNIGSNSVYWYQQFPGTAPKLLIYRNNQRPSGVPDRFSGSKSDTSASLAISGLRSEDEADYYCATWDDSLSGVVFGGGTKLTVL
notes: phage scFv
B7: hN1S3-055 (scFv, V domains shown)
VH: B1 VH with Q5V, L45P, Q106R
VL: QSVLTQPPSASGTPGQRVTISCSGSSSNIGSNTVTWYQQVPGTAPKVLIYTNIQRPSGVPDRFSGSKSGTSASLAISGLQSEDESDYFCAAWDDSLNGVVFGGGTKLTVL
notes: phage scFv
B8: hN1S3-091 (scFv, V domains shown)
VH: B1 VH with Q1E, Q5V
VL: QSVLTQPPSATGTPGQTVSISCSGGNSNIGSNYVSWYQQLPGTAPKLLIYSNNQRPSGVPDRFSGSKSGTSASLAISGLQSEDEADYYCAAWDDSLNGHIFGTGTKLTVL
notes: phage scFv
B9: N1wc102 (scFv, V domains shown)
VH: B1 VH with Q5V, S17P, T69A
VL: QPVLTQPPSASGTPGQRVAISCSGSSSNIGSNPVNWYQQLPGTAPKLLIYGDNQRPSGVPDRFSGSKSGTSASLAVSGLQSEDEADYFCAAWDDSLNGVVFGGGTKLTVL
notes: phage scFv
B10: hN1S3-001 (scFv, V domains shown)
VH: B1 VH with Q1E, Q5V
VL: not shown
notes: phage scFv
B11: N1wc403 (scFv, V domains shown)
VH: B1 VH with Q1E, Q5V, Q106R, M109L
VL: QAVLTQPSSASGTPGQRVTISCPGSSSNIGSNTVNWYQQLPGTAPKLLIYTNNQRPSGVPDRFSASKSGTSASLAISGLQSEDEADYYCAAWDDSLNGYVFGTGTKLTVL
notes: phage scFv
B12: hN1S3-182 (scFv, V domains shown)
VH: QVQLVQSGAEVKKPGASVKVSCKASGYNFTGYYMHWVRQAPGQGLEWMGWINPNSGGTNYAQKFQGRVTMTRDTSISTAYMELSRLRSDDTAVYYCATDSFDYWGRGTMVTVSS
VL: B2 VL with R26S, A31S, G32P, H36N, L41F, S54I, S92T, S96T, S98N, S100A
notes: phage scFv
B13: N1wc516 (scFv, V domains shown)
VH: B1 VH with Q1E, Q5V, Q6E, T69I, R87T, Q106R, M109L
VL: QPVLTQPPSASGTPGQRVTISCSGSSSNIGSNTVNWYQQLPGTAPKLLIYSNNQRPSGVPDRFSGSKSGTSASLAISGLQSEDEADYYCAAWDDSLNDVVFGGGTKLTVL
notes: phage scFv
B14: N1wc540 (scFv, V domains shown)
VH: B1 VH with Q1E, Q5V
VL: QAVLTQPSSASGTPGQRVTISCSGSSSNIGSYTVNWYQQVPGTAPKLLIYSNNQRPSGVPERFSGSKSGTSASLAISGLQSEDEADYYCAAWDDSLSDVLFGGGTKLTVL
notes: phage scFv
B15: hN1S3-032 (scFv, V domains shown)
VH: B1 VH with Q1E, Q5V, Q106K, M109L
VL: B2 VL with R26S, Q39R, I50L, S54D, T71A, Q81R, E83D, L108V
notes: phage scFv
B16: hN1S3-124 (scFv, V domains shown)
VH: B1 VH with Q1E, Q5V, Q106R, M109T
VL: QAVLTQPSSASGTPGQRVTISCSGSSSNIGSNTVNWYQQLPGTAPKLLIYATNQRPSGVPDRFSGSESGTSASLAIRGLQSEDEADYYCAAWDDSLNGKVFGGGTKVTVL
notes: phage scFv
B17: hN1S3-096 (scFv, V domains shown)
VH: B1 VH with Q1E, Q5V, Q106R, M109T
VL: B6 VL with S2P, G30A, F40L, K67Q, D69G, T70A, T91A, S95N, S97Y
notes: phage scFv
B18: N1wc135 (scFv, V domains shown)
VH: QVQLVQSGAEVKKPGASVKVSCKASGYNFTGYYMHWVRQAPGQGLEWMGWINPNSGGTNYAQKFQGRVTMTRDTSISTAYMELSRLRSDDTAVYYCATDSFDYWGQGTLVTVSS
VL: B6 VL with Q1L, S2P, T19I, S33Y, F40L, D69G, Y88H, T91A
notes: phage scFv
B19: hN1S3-092 (scFv, V domains shown)
VH: B1 VH with Q1E, Q5V, M109L
VL: B6 VL with S31A, S33Y, F40L, R51K, N53D, D69G, T91A, V99L, L107V
notes: phage scFv
B20: hN1S3-095 (scFv, V domains shown)
VH: B1 VH with Q1E, Q5V, Q43R, M109L
VL: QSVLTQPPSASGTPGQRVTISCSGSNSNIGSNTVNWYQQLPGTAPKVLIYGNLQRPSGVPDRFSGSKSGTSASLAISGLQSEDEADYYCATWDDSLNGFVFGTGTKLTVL
notes: phage scFv
B21: hN1S3-023 (scFv, V domains shown)
VH: B1 VH with Q1E, Q5V
VL: not shown
notes: phage scFv
B22: N1wc572 (scFv, V domains shown)
VH: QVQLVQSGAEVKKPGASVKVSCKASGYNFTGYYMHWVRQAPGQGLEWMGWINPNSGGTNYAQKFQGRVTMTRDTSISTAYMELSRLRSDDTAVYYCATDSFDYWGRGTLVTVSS
VL: LPVLTQPPSASGTPGQRVTISCSGSSSNIGSNPVNWYQQLPGSAPKLLVYSDDQRPSGVPDRFSGSKSGASASLAISGLQSEDESDYYCAAWDDSLNAVVFGGGTKVTVL
notes: phage scFv
B23: N1wc633 (scFv, V domains shown)
VH: B1 VH with Q106R, M109L
VL: B14 VL with L107V
notes: phage scFv
B24: hN1S3-038 (scFv, V domains shown)
VH: B1 VH with Q1E, Q5V, T69I, R87T, Q106R, M109T, S114R
VL: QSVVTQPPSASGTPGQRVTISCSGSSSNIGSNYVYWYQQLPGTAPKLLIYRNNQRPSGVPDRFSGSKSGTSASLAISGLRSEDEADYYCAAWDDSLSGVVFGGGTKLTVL
notes: phage scFv
B25: hN1S3-003 (scFv, V domains shown)
VH: EVQLVQSGPEVKKPGTSVKVSCKASGFTFTNSAVQWVRQARGQRLEWIGWIVVGSGNTNYAQKFQERVTITRDMSTSTAYMELSSLKSEDTAVYYCVADTVYWGQGTLVTVSS
VL: not shown
notes: phage scFv
B26: N1wc11 (scFv, V domains shown)
VH: B25 VH with T58I, Q105R, L108M
VL: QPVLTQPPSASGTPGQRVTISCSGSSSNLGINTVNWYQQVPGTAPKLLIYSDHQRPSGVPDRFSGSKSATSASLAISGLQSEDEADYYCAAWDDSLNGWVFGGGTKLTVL
notes: phage scFv
B27: N1wc131 (scFv, V domains shown)
VH: B1 VH with Q1E, Q5V, V11A, M109L
VL: SYELTQPPSASGTPGQRVTISCSGTSSNIGINYVYWYQQLPRTAPKLLIYYNNQRPSGVPDRFSGSRSGTSASLAISGLRSEDEADYYCAAWDDSLSGLVFGTGTKLTVL
notes: phage scFv
B28: N1wc72 (scFv, V domains shown)
VH: B1 VH with Q1E, Q5V, Q106K
VL: QPVLTQPPSASGTPGQRVTISCSGSYSNIGSNYVYWYQQFPGTAPKLLIYTNNQRPSGVPDRFSGSKSGSSASLAISGLRSEDEADYYCAAWDDSVGVLLFGGGTKVTVL
notes: phage scFv
B29: N1wc476 (scFv, V domains shown)
VH: B1 VH with Q1E, Q5V, M109L
VL: QAVLTQPSSVSGTPGQTVTISCSGSNSNIGNNYVYWYQQLPGSAPKVVIYRNHQRPSGVPDRFSGSKSGTAASLAISGLRSEDEADYYCASWDDSLSGLVFGGGTKLTVL
notes: phage scFv
B30: hN1S3-130 (scFv, V domains shown)
VH: KVQLVQSGAEVKKPGASVKVSCKASGYTFTDFYIHWVRQAPGQGLEWMGWINSKSGDTHYAQKFQGRVTLTRDTSTDTAYMELSRLTSDDTAVYYCARGAYDYVWGSSRYVADAFDIWGRGTMVTVSS
VL: DIVMTQSPSTLSASVGDRVTITCRASQGISSWLAWYQQKPGRAPKVLIYKASTLESGVPSRFSGSGSGTDFTLTISSLQPEDFATYYCQQSYSTPWTFGQGTKLEIK
notes: phage scFv

Substitutions are numbered along the chain they refer to.

The first experiment deals with T1, human full-length Notch1 with C-terminal FLAG tag, stably expressed on 293 FlpIn (TREx) cells (human, UniProt P46531 19-2555).
T1 construct: tetracycline/doxycycline-induced expression from pcDNA5/FRT/TO-HN1+FLAG; also called hN1; 293_N1
The experiment is described as follows: FACS, phage scFv. For orientation: Flow cytometry measures light scatter and fluorescence of single cells or particles in a stream.
Take B1: the binding result is given as “binds”.
Still for that read-out and setting: next, B2: “binds”.
Regarding B3, the binding result is listed as “binds”.
The same measure, in the same setting: next, B4: “binds”; B5: “binds”; B6: “binds”.
The same measure, in the same setting: next, B7: “binds”; B8: “binds”.
Regarding B9, the binding result is “binds”.
The same measure, in the same setting: the value for B10 was “binds”; that for B11 was “binds”.
In the case of B12, the binding result is “binds”.
Regarding B13, the binding result is on record as “binds”.
As to B14, the binding result was “binds”.
Still for that read-out and setting: next, B15: “binds”; B16: “binds”; B17: “binds”.
Still for that read-out and setting: next, B18: “binds”; B19: “binds”.
Still for that read-out and setting: the value for B20 was “binds”; that for B21 was “binds”.
Consider B22, for which the binding result is given as “binds”.
Regarding B23, the binding result was “binds”.
Take B24: the binding result is on record as “binds”.
Still for that read-out and setting: the value for B25 was “binds”; that for B26 was “binds”.

For the next experiment, the target named is T2, human full-length Notch3 with C-terminal FLAG tag, stably expressed on 293 FlpIn (TREx) cells (human, UniProt Q9UM47 40-2321).
T2 construct: whole, on cells; made by the same strategy as the Notch1 line; also called 293-N3; hN3
The experiment is described as follows: FACS, phage scFv.
Turning to B1, the binding result is reported as “binds”.
Regarding B27, the binding result was “binds”.
The same measure, in the same setting: next, B2: “binds”; B28: “binds”.
The same measure, in the same setting: next, B29: “binds”; B3: “binds”.
The same measure, in the same setting: the value for B4 was “binds”; that for B5 was “binds”.
Regarding B6, the binding result was “binds”.
Same read-out and setting: next, B7: “binds”; B8: “binds”.
Still for that read-out and setting: the value for B9 was “binds”; that for B10 was “binds”; that for B11 was “binds”.
Consider B12, for which the binding result was “binds”.
Still for that read-out and setting: the value for B13 was “binds”; that for B14 was “binds”; that for B15 was “binds”.
On the same count and under the same terms, the value for B16 was “binds”.
The same measure, in the same setting: next, B17: “binds”; B18: “binds”.
For the molecule B19, the binding result was “binds”.
The same measure, in the same setting: the value for B20 was “binds”; that for B21 was “binds”.
Still for that read-out and setting: next, B22: “binds”; B23: “binds”.
Turning to B24, the binding result is “binds”.
Regarding B25, the binding result is “binds”.
On the same count and under the same terms, next, B26: “binds”; B30: “binds”.
